Data taken from publication PMC12576456.

What was measured:
[1] = target: YFT1-C^S927D/S1118D (cYFP fusion) (tomato (Solanum lycopersicum)); test: split reporter (BiFC, NanoBiT); BiFC: nYFP-SlTFT1 with YFT1-C derivatives fused to cYFP, transiently co-transformed into N. benthamiana leaves via Agrobacterium; YFP by confocal microscopy, intensity by ImageJ
[2] = target: YFT1-C^S927A/S1118A (cYFP fusion) (tomato (Solanum lycopersicum)); test: as above

## nYFP-SlTFT1 (natural protein)
[1]
  BiFC YFP fluorescence, percent of YFT1-C: 114%
[2]
  BiFC YFP fluorescence, percent of YFT1-C: 67%
